Experimental data as given in article PMC6555819, “Comprehensive study of nuclear receptor DNA binding provides a revised framework for understanding receptor specificity”.

Experiments:
[1] = biological target: RXRa (Homo sapiens, UniProt P19793); assay: no ligand; PBM; 180 nM; PBS pH 7.4, 2% milk, 0.02% Triton X-100, 1 mM DTT, BSA, 0.4 mg/ml salmon testes DNA; conditions: tags: His cleaved; chain copies: 2; label: surface-attached array probe
[2] = biological target: FXR:RXRa (Homo sapiens, UniProt Q96RI1;P19793 full;full); assay: no ligand; PBM; 270 nM : 90 nM RXRa; PBS pH 7.4, 2% milk, 0.02% Triton X-100, 1 mM DTT, BSA, 0.4 mg/ml salmon testes DNA; conditions: tags: His kept;His cleaved; copies: 1;1; label: surface-attached array probe
Chain of FXR:RXRa (Q96RI1 whole entry, chain 1 of 2): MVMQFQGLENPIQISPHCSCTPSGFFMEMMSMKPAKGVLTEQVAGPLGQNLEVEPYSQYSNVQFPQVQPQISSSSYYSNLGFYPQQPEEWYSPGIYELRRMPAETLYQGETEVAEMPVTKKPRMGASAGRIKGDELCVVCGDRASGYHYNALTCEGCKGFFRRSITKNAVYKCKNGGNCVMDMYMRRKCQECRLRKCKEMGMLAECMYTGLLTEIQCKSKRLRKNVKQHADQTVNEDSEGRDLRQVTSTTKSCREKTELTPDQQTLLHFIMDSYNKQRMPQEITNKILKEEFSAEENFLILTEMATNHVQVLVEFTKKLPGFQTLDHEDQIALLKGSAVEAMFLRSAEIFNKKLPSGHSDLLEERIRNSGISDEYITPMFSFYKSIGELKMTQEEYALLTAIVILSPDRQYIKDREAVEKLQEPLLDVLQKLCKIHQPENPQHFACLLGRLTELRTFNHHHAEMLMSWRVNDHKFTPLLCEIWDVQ
Chain of FXR:RXRa (P19793 whole entry, chain 2 of 2): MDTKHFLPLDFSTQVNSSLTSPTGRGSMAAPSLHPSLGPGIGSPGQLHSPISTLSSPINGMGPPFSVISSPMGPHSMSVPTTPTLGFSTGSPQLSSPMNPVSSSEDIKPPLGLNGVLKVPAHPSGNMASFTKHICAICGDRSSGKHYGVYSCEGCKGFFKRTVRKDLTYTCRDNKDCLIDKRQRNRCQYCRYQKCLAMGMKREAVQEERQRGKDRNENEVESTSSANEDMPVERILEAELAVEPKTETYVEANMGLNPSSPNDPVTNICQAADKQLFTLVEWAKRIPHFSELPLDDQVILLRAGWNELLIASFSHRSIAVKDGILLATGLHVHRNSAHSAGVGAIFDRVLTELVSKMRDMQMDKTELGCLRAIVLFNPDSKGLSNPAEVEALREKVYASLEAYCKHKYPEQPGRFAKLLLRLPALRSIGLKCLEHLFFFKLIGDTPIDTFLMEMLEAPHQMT
Outline: (§1)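 Binding z-scores take random background probes as their reference. They come from custom Agilent 4×180K protein-binding microarrays incubated 1 h with ligand-free nuclear receptor dimers, with antibodies against each partner (one per run) detecting binding. Scanned fluorescence was regression-normalized.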

[3] = biological target: PPARa:RXRa (Homo sapiens, UniProt Q07869;P19793 full;full); assay: as above; conditions: tags: GST kept;His cleaved; copies: 1;1; label: surface-attached array probe
Chain of PPARa:RXRa (Q07869 whole entry, chain 1 of 2): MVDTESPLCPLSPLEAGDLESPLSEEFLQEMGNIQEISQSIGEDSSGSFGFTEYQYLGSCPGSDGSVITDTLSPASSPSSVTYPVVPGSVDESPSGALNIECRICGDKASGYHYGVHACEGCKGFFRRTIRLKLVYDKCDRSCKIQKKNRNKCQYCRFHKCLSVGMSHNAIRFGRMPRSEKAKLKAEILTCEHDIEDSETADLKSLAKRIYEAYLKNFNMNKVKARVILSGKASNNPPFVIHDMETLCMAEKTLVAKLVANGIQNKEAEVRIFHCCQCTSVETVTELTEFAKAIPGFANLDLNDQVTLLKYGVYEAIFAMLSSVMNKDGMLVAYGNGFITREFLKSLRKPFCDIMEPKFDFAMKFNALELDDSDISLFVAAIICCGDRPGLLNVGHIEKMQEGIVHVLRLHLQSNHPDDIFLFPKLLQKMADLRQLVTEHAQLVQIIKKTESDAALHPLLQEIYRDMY
Chain of PPARa:RXRa (P19793 whole entry, chain 2 of 2): as the sequence (P19793 whole entry, chain 2 of 2) above
Outline: as §1

[4] = biological target: RARg:RXRa (Homo sapiens, UniProt P13631;P19793 full;full); assay: as above; conditions: tags: His kept;His cleaved; copies: 1;1; label: surface-attached array probe
Chain of RARg:RXRa (P13631 whole entry, chain 1 of 2): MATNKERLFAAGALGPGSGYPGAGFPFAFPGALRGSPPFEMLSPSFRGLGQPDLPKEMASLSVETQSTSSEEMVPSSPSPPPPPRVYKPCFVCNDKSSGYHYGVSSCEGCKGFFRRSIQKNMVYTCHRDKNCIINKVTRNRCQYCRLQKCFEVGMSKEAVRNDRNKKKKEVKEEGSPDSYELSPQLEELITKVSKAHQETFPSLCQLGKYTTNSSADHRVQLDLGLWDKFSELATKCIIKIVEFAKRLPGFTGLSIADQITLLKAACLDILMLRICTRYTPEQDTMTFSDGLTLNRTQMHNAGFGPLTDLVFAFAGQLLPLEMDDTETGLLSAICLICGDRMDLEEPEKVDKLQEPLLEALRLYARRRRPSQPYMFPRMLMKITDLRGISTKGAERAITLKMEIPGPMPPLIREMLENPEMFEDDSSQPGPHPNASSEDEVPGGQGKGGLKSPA
Chain of RARg:RXRa (P19793 whole entry, chain 2 of 2): as the sequence (P19793 whole entry, chain 2 of 2) above
Outline: as §1

Chain of RXRa (P19793 whole entry): as the sequence (P19793 whole entry, chain 2 of 2) above

| Binder | binding signal [1] | further results |
| --- | --- | --- |
| NRC3_random_hg19_301_o1 (dsDNA) DNA 1: GCGAGAACAGACTAACACACACACACACACACACACGCGATTGACAGCGTAGAATGAAGG DNA 2: CCTTCATTCTACGCTGTCAATCGCGTGTGTGTGTGTGTGTGTGTGTTAGTCTGTTCTCGC | 0.4 PBM z-score against 500 random probes |  |
| NRC3_random_hg19_376_o1 (dsDNA) DNA 1: GCTTCCTCTTCCTCTGTGCCTGTGTAGCCTCCATCCGCGATTGACAGCGTAGAATGAAGG DNA 2: CCTTCATTCTACGCTGTCAATCGCGGATGGAGGCTACACAGGCACAGAGGAAGAGGAAGC | -0.77 PBM z-score against 500 random probes |  |
| NRC3_random_hg19_375_o1 (dsDNA) DNA 1: GCCAGAAGAGGAGAAGACACATAAGAAGAGGAAGTCGCGATTGACAGCGTAGAATGAAGG DNA 2: CCTTCATTCTACGCTGTCAATCGCGACTTCCTCTTCTTATGTGTCTTCTCCTCTTCTGGC | 0.13 PBM z-score against 500 random probes | binding signal [2]: 0.5 PBM z-score against 500 random probes |
| NRC3_random_hg19_21_o1 (dsDNA) DNA 1: GCAACATTTCAGTATACTTTCTAGCAACTCTGGGTAGCGATTGACAGCGTAGAATGAAGG DNA 2: CCTTCATTCTACGCTGTCAATCGCTACCCAGAGTTGCTAGAAAGTATACTGAAATGTTGC | 0.34 PBM z-score against 500 random probes | binding signal [3]: 0.2 PBM z-score against 500 random probes |
| NRC3_random_hg19_89_o1 (dsDNA) DNA 1: GCCAAGATGAATCAGAAGCATGCCATCCGAATTCCAGCGATTGACAGCGTAGAATGAAGG DNA 2: CCTTCATTCTACGCTGTCAATCGCTGGAATTCGGATGGCATGCTTCTGATTCATCTTGGC | -0 PBM z-score against 500 random probes |  |
| NRC3_random_hg19_79_o1 (dsDNA) DNA 1: GCCAGTGTCCTCCTGAGAATTGGTTGTGTTGGGCAGGCGATTGACAGCGTAGAATGAAGG DNA 2: CCTTCATTCTACGCTGTCAATCGCCTGCCCAACACAACCAATTCTCAGGAGGACACTGGC | -0.79 PBM z-score against 500 random probes |  |
| NRC3_random_hg19_248_o1 (dsDNA) DNA 1: GCGTGTTCTACTGTACTGCAGCTGAGCCGACACTCAGCGATTGACAGCGTAGAATGAAGG DNA 2: CCTTCATTCTACGCTGTCAATCGCTGAGTGTCGGCTCAGCTGCAGTACAGTAGAACACGC | -0.43 PBM z-score against 500 random probes | binding signal [4]: -0.34 PBM z-score against 500 random probes |
| NRC3_random_hg19_226_o1 (dsDNA) DNA 1: GCCATCCCATTTCTCTTCCCAAGGGATTTGAAAGAGGCGATTGACAGCGTAGAATGAAGG DNA 2: CCTTCATTCTACGCTGTCAATCGCCTCTTTCAAATCCCTTGGGAAGAGAAATGGGATGGC | -0.08 PBM z-score against 500 random probes | binding signal [4]: -0.16 PBM z-score against 500 random probes |
| NRC3_random_hg19_498_o1 (dsDNA) DNA 1: GCGACCACAGGTATAGTGTGCTGGACTATGTTCCAGGCGATTGACAGCGTAGAATGAAGG DNA 2: CCTTCATTCTACGCTGTCAATCGCCTGGAACATAGTCCAGCACACTATACCTGTGGTCGC | -0.31 PBM z-score against 500 random probes |  |
| NRC3_random_hg19_34_o1 (dsDNA) DNA 1: GCATGATGCCTCCTTGGAGAAGTCCTGCATTCATCCGCGATTGACAGCGTAGAATGAAGG DNA 2: CCTTCATTCTACGCTGTCAATCGCGGATGAATGCAGGACTTCTCCAAGGAGGCATCATGC | -0.46 PBM z-score against 500 random probes |  |
| NRC3_random_hg19_366_o1 (dsDNA) DNA 1: GCACTACTACTGCTGTTGAGAAACCTGCATTGTGGCGCGATTGACAGCGTAGAATGAAGG DNA 2: CCTTCATTCTACGCTGTCAATCGCGCCACAATGCAGGTTTCTCAACAGCAGTAGTAGTGC | -0.56 PBM z-score against 500 random probes |  |
| NRC3_wobSeed88_DR3_o1 (dsDNA) DNA 1: GCTAGCCTAGGTCATGCGGGCCAGTATAGTGTCGGCGCGATTGACAGCGTAGAATGAAGG DNA 2: CCTTCATTCTACGCTGTCAATCGCGCCGACACTATACTGGCCCGCATGACCTAGGCTAGC | 3.04 PBM z-score against 500 random probes | binding signal [3]: 3.33 PBM z-score against 500 random probes |
| NRC3_random_hg19_160_o1 (dsDNA) DNA 1: GCATCCCTGCAATGGCCTGCAAAGTTACAGGTTGCAGCGATTGACAGCGTAGAATGAAGG DNA 2: CCTTCATTCTACGCTGTCAATCGCTGCAACCTGTAACTTTGCAGGCCATTGCAGGGATGC | -0.41 PBM z-score against 500 random probes |  |
| NRC3_wobSeed97_DR4_T8C_o1 (dsDNA) DNA 1: GCCAAACCAGGTCACGAAAGGTCAAAGTCGAATGACGCGATTGACAGCGTAGAATGAAGG DNA 2: CCTTCATTCTACGCTGTCAATCGCGTCATTCGACTTTGACCTTTCGTGACCTGGTTTGGC | 9.26 PBM z-score against 500 random probes | binding signal [4]: 8.22 PBM z-score against 500 random probes |
| NRC3_random_hg19_292_o1 (dsDNA) DNA 1: GCCAAGACCCTAAGGAACCACTGTGTGGGATGTCAGGCGATTGACAGCGTAGAATGAAGG DNA 2: CCTTCATTCTACGCTGTCAATCGCCTGACATCCCACACAGTGGTTCCTTAGGGTCTTGGC | 0.44 PBM z-score against 500 random probes |  |
| NRC3_wobSeed76_DR3_C22A_o1 (dsDNA) DNA 1: GCCCTACTGGGCCAAAAAGGTAATTGATGCCGATAAGCGATTGACAGCGTAGAATGAAGG DNA 2: CCTTCATTCTACGCTGTCAATCGCTTATCGGCATCAATTACCTTTTTGGCCCAGTAGGGC | 0.01 PBM z-score against 500 random probes |  |
| NRC3_wobSeed61_DR2_G10C_o1 (dsDNA) DNA 1: GCCGTCCAACGTCAGCAGGTCAGTGAAAGCGACGTGGCGATTGACAGCGTAGAATGAAGG DNA 2: CCTTCATTCTACGCTGTCAATCGCCACGTCGCTTTCACTGACCTGCTGACGTTGGACGGC | 0.42 PBM z-score against 500 random probes | binding signal [3]: 0.49 PBM z-score against 500 random probes |
| NRC3_random_hg19_365_o1 (dsDNA) DNA 1: GCAGTAGACACAGGGTTTCACCGTGTTGGCCAGGATGCGATTGACAGCGTAGAATGAAGG DNA 2: CCTTCATTCTACGCTGTCAATCGCATCCTGGCCAACACGGTGAAACCCTGTGTCTACTGC | 0.03 PBM z-score against 500 random probes |  |
| NRC3_random_hg19_2_o1 (dsDNA) DNA 1: GCGTAACAAGAACAAGGCCATACTTTCATGCATCTAGCGATTGACAGCGTAGAATGAAGG DNA 2: CCTTCATTCTACGCTGTCAATCGCTAGATGCATGAAAGTATGGCCTTGTTCTTGTTACGC | 0.08 PBM z-score against 500 random probes |  |
| NRC3_wobSeed39_DR1_G10A_o1 (dsDNA) DNA 1: GCCGAACTAAGTCAAAGGACAGTGAAAGGCGACGTAGCGATTGACAGCGTAGAATGAAGG DNA 2: CCTTCATTCTACGCTGTCAATCGCTACGTCGCCTTTCACTGTCCTTTGACTTAGTTCGGC | 0.22 PBM z-score against 500 random probes |  |
| NRC3_wobSeed100_DR4_A24C_o1 (dsDNA) DNA 1: GCCCTACTGGGCCACGAAAGGTCCTTGATTCAGTGAGCGATTGACAGCGTAGAATGAAGG DNA 2: CCTTCATTCTACGCTGTCAATCGCTCACTGAATCAAGGACCTTTCGTGGCCCAGTAGGGC | 0.26 PBM z-score against 500 random probes |  |
| NRC3_wobSeed27_DR1_G22C_o1 (dsDNA) DNA 1: GCACTCGGAGGACAAAGGTCACAGCTACGCCAGTGAGCGATTGACAGCGTAGAATGAAGG DNA 2: CCTTCATTCTACGCTGTCAATCGCTCACTGGCGTAGCTGTGACCTTTGTCCTCCGAGTGC | 8.07 PBM z-score against 500 random probes | binding signal [4]: 7.47 PBM z-score against 500 random probes |
| NRC3_wobSeed27_DR1_G17T_o1 (dsDNA) DNA 1: GCACTCGGAGGACAAATGTCAGAGCTACGCCAGTGAGCGATTGACAGCGTAGAATGAAGG DNA 2: CCTTCATTCTACGCTGTCAATCGCTCACTGGCGTAGCTCTGACATTTGTCCTCCGAGTGC | 0.08 PBM z-score against 500 random probes |  |
| NRC3_random_hg19_240_o1 (dsDNA) DNA 1: GCGACCATCTCCACACTGCACGATGATGAGATCCTGGCGATTGACAGCGTAGAATGAAGG DNA 2: CCTTCATTCTACGCTGTCAATCGCCAGGATCTCATCATCGTGCAGTGTGGAGATGGTCGC | 0.1 PBM z-score against 500 random probes |  |
| NRC3_wobSeed58_DR2_A9T_o1 (dsDNA) DNA 1: GCATCGAATGGTCGTGAGGTGAGTATACAGAAAGGCGCGATTGACAGCGTAGAATGAAGG DNA 2: CCTTCATTCTACGCTGTCAATCGCGCCTTTCTGTATACTCACCTCACGACCATTCGATGC | 0.34 PBM z-score against 500 random probes |  |
| NRC3_wobSeed30_DR1_C20G_o1 (dsDNA) DNA 1: GCACTAGCAGGCCAAGGGTGACTCAAGATTAGTCCGGCGATTGACAGCGTAGAATGAAGG DNA 2: CCTTCATTCTACGCTGTCAATCGCCGGACTAATCTTGAGTCACCCTTGGCCTGCTAGTGC | 0.36 PBM z-score against 500 random probes |  |
| NRC3_random_hg19_236_o1 (dsDNA) DNA 1: GCGCCTAGCACTTGTGTTGACCATTCATTCAGTGCTGCGATTGACAGCGTAGAATGAAGG DNA 2: CCTTCATTCTACGCTGTCAATCGCAGCACTGAATGAATGGTCAACACAAGTGCTAGGCGC | -0.35 PBM z-score against 500 random probes |  |
| NRC3_wobSeed90_DR3_T12A_o1 (dsDNA) DNA 1: GCCATACAGGGACAGCTAGGCCAGAGTAGGGACGGCGCGATTGACAGCGTAGAATGAAGG DNA 2: CCTTCATTCTACGCTGTCAATCGCGCCGTCCCTACTCTGGCCTAGCTGTCCCTGTATGGC | 0.2 PBM z-score against 500 random probes |  |
| NRC3_random_hg19_95_o1 (dsDNA) DNA 1: GCATCTTCAGTATGTTTCATTCAGTAGCTCAGTGGCGCGATTGACAGCGTAGAATGAAGG DNA 2: CCTTCATTCTACGCTGTCAATCGCGCCACTGAGCTACTGAATGAAACATACTGAAGATGC | -0.26 PBM z-score against 500 random probes | binding signal [3]: -0.24 PBM z-score against 500 random probes |
